Results as given in US20100272723A1 (Xencor, published 2010).

T1: human CD19 (human, UniProt P15391 20-556)
T1 construct: also called B-cell surface antigen B4; B-cell antigen CD19
T1 sequence: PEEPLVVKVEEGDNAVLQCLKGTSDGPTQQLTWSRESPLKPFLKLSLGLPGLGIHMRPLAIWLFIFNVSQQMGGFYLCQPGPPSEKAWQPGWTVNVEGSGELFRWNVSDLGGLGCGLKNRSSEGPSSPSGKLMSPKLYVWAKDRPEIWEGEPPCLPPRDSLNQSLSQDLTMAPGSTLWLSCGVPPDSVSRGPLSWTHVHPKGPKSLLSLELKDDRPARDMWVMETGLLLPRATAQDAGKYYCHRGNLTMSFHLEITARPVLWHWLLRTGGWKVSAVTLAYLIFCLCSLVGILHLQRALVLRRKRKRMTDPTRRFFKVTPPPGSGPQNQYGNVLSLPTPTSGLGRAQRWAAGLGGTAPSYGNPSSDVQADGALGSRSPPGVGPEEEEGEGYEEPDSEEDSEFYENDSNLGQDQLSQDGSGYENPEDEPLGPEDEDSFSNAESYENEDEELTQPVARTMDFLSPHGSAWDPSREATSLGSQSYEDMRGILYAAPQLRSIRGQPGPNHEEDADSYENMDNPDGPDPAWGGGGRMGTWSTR


Biological target: T1, human CD19
Assay: binding affinity relative to the parent H1L1 mAb (Example 5); assay and format not named on the sheet

Binder | Fold change binding [fold]
H1.113 / L1 (antibody, V domains shown, vs H1L1 (Kabat): VH T57H; also called 4G7 H1.113_L1) VH: EVQLVESGGGLVKPGGSLKLSCAASGYTFTSYVMHWVRQAPGKGLEWIGYINPYNDGHKYNEKFQGRVTISSDKSISTAYMELSSLRSEDTAMYYCARGTYYYGSRVFDYWGQGTLVTVSS VL: DIVMTQSPATLSLSPGERATLSCRSSKSLLNSNGNTYLYWFQQKPGQSPQLLIYRMSNLASGVPDRFSGSGSGTEFTLTISSLEPEDFAVYYCMQHLEYPFTFGAGTKLEIK | 1.29
H1.191 / L1.149 (antibody, V domains shown, vs H1L1 (Kabat): VH K58E/S100cT; VL L27cQ/A55N/F96I; also called 4G7 H1.191_L1.149) VH: EVQLVESGGGLVKPGGSLKLSCAASGYTFTSYVMHWVRQAPGKGLEWIGYINPYNDGTEYNEKFQGRVTISSDKSISTAYMELSSLRSEDTAMYYCARGTYYYGTRVFDYWGQGTLVTVSS VL: DIVMTQSPATLSLSPGERATLSCRSSKSLQNSNGNTYLYWFQQKPGQSPQLLIYRMSNLNSGVPDRFSGSGSGTEFTLTISSLEPEDFAVYYCMQHLEYPITFGAGTKLEIK | 6.02
H1.191 / L1.155 (antibody, V domains shown, vs H1L1 (Kabat): VH K58E/S100cT; VL L27cQ/S27eV/A55N/F96I; also called 4G7 H1.191_L1.155) VH: EVQLVESGGGLVKPGGSLKLSCAASGYTFTSYVMHWVRQAPGKGLEWIGYINPYNDGTEYNEKFQGRVTISSDKSISTAYMELSSLRSEDTAMYYCARGTYYYGTRVFDYWGQGTLVTVSS VL: DIVMTQSPATLSLSPGERATLSCRSSKSLQNVNGNTYLYWFQQKPGQSPQLLIYRMSNLNSGVPDRFSGSGSGTEFTLTISSLEPEDFAVYYCMQHLEYPITFGAGTKLEIK | 4.56
H1.144 / L1 (antibody, V domains shown, vs H1L1 (Kabat): VH D101N; also called 4G7 H1.144_L1) VH: EVQLVESGGGLVKPGGSLKLSCAASGYTFTSYVMHWVRQAPGKGLEWIGYINPYNDGTKYNEKFQGRVTISSDKSISTAYMELSSLRSEDTAMYYCARGTYYYGSRVFNYWGQGTLVTVSS VL: DIVMTQSPATLSLSPGERATLSCRSSKSLLNSNGNTYLYWFQQKPGQSPQLLIYRMSNLASGVPDRFSGSGSGTEFTLTISSLEPEDFAVYYCMQHLEYPFTFGAGTKLEIK | 2.26
H1.199 / L1.139 (antibody, V domains shown, vs H1L1 (Kabat): VH T57P/K58E/S100cT; VL S27eV/F96N; also called 4G7 H1.199_L1.139) VH: EVQLVESGGGLVKPGGSLKLSCAASGYTFTSYVMHWVRQAPGKGLEWIGYINPYNDGPEYNEKFQGRVTISSDKSISTAYMELSSLRSEDTAMYYCARGTYYYGTRVFDYWGQGTLVTVSS VL: DIVMTQSPATLSLSPGERATLSCRSSKSLLNVNGNTYLYWFQQKPGQSPQLLIYRMSNLASGVPDRFSGSGSGTEFTLTISSLEPEDFAVYYCMQHLEYPNTFGAGTKLEIK | 2.36
H1.192 / L1.154 (antibody, V domains shown, vs H1L1 (Kabat): VH T57P/S100cT; VL L27cQ/S27eV/A55N/F96N; also called 4G7 H1.192_L1.154) VH: EVQLVESGGGLVKPGGSLKLSCAASGYTFTSYVMHWVRQAPGKGLEWIGYINPYNDGPKYNEKFQGRVTISSDKSISTAYMELSSLRSEDTAMYYCARGTYYYGTRVFDYWGQGTLVTVSS VL: DIVMTQSPATLSLSPGERATLSCRSSKSLQNVNGNTYLYWFQQKPGQSPQLLIYRMSNLNSGVPDRFSGSGSGTEFTLTISSLEPEDFAVYYCMQHLEYPNTFGAGTKLEIK | 5.12
H1.196 / L1.154 (antibody, V domains shown, vs H1L1 (Kabat): VH T57P/S100cT/R100dS; VL L27cQ/S27eV/A55N/F96N; also called 4G7 H1.196_L1.154) VH: EVQLVESGGGLVKPGGSLKLSCAASGYTFTSYVMHWVRQAPGKGLEWIGYINPYNDGPKYNEKFQGRVTISSDKSISTAYMELSSLRSEDTAMYYCARGTYYYGTSVFDYWGQGTLVTVSS VL: DIVMTQSPATLSLSPGERATLSCRSSKSLQNVNGNTYLYWFQQKPGQSPQLLIYRMSNLNSGVPDRFSGSGSGTEFTLTISSLEPEDFAVYYCMQHLEYPNTFGAGTKLEIK | 4.44
H1.146 / L1 (antibody, V domains shown, vs H1L1 (Kabat): VH D101H; also called 4G7 H1.146_L1) VH: EVQLVESGGGLVKPGGSLKLSCAASGYTFTSYVMHWVRQAPGKGLEWIGYINPYNDGTKYNEKFQGRVTISSDKSISTAYMELSSLRSEDTAMYYCARGTYYYGSRVFHYWGQGTLVTVSS VL: DIVMTQSPATLSLSPGERATLSCRSSKSLLNSNGNTYLYWFQQKPGQSPQLLIYRMSNLASGVPDRFSGSGSGTEFTLTISSLEPEDFAVYYCMQHLEYPFTFGAGTKLEIK | 2.45
H1.191 / L1.161 (antibody, V domains shown, vs H1L1 (Kabat): VH K58E/S100cT; VL L27cQ/S27eV/G29S/A55N/F96I; also called 4G7 H1.191_L1.161) VH: EVQLVESGGGLVKPGGSLKLSCAASGYTFTSYVMHWVRQAPGKGLEWIGYINPYNDGTEYNEKFQGRVTISSDKSISTAYMELSSLRSEDTAMYYCARGTYYYGTRVFDYWGQGTLVTVSS VL: DIVMTQSPATLSLSPGERATLSCRSSKSLQNVNSNTYLYWFQQKPGQSPQLLIYRMSNLNSGVPDRFSGSGSGTEFTLTISSLEPEDFAVYYCMQHLEYPITFGAGTKLEIK | 3.97
H1.192 / L1.144 (antibody, V domains shown, vs H1L1 (Kabat): VH T57P/S100cT; VL L27cQ/F96N; also called 4G7 H1.192_L1.144) VH: EVQLVESGGGLVKPGGSLKLSCAASGYTFTSYVMHWVRQAPGKGLEWIGYINPYNDGPKYNEKFQGRVTISSDKSISTAYMELSSLRSEDTAMYYCARGTYYYGTRVFDYWGQGTLVTVSS VL: DIVMTQSPATLSLSPGERATLSCRSSKSLQNSNGNTYLYWFQQKPGQSPQLLIYRMSNLASGVPDRFSGSGSGTEFTLTISSLEPEDFAVYYCMQHLEYPNTFGAGTKLEIK | 3.63
H1.191 / L1.160 (antibody, V domains shown, vs H1L1 (Kabat): VH K58E/S100cT; VL L27cQ/S27eV/G29A/A55N/F96I; also called 4G7 H1.191_L1.160) VH: EVQLVESGGGLVKPGGSLKLSCAASGYTFTSYVMHWVRQAPGKGLEWIGYINPYNDGTEYNEKFQGRVTISSDKSISTAYMELSSLRSEDTAMYYCARGTYYYGTRVFDYWGQGTLVTVSS VL: DIVMTQSPATLSLSPGERATLSCRSSKSLQNVNANTYLYWFQQKPGQSPQLLIYRMSNLNSGVPDRFSGSGSGTEFTLTISSLEPEDFAVYYCMQHLEYPITFGAGTKLEIK | 2.91
H1.192 / L1.148 (antibody, V domains shown, vs H1L1 (Kabat): VH T57P/S100cT; VL L27cQ/A55N/F96N; also called 4G7 H1.192_L1.148) VH: EVQLVESGGGLVKPGGSLKLSCAASGYTFTSYVMHWVRQAPGKGLEWIGYINPYNDGPKYNEKFQGRVTISSDKSISTAYMELSSLRSEDTAMYYCARGTYYYGTRVFDYWGQGTLVTVSS VL: DIVMTQSPATLSLSPGERATLSCRSSKSLQNSNGNTYLYWFQQKPGQSPQLLIYRMSNLNSGVPDRFSGSGSGTEFTLTISSLEPEDFAVYYCMQHLEYPNTFGAGTKLEIK | 4.63
H1.192 / L1.152 (antibody, V domains shown, vs H1L1 (Kabat): VH T57P/S100cT; VL L27cQ/S27eV/F96N; also called 4G7 H1.192_L1.152) VH: EVQLVESGGGLVKPGGSLKLSCAASGYTFTSYVMHWVRQAPGKGLEWIGYINPYNDGPKYNEKFQGRVTISSDKSISTAYMELSSLRSEDTAMYYCARGTYYYGTRVFDYWGQGTLVTVSS VL: DIVMTQSPATLSLSPGERATLSCRSSKSLQNVNGNTYLYWFQQKPGQSPQLLIYRMSNLASGVPDRFSGSGSGTEFTLTISSLEPEDFAVYYCMQHLEYPNTFGAGTKLEIK | 2.98
H1.196 / L1.146 (antibody, V domains shown, vs H1L1 (Kabat): VH T57P/S100cT/R100dS; VL S27eV/A55N/F96N; also called 4G7 H1.196_L1.146) VH: EVQLVESGGGLVKPGGSLKLSCAASGYTFTSYVMHWVRQAPGKGLEWIGYINPYNDGPKYNEKFQGRVTISSDKSISTAYMELSSLRSEDTAMYYCARGTYYYGTSVFDYWGQGTLVTVSS VL: DIVMTQSPATLSLSPGERATLSCRSSKSLLNVNGNTYLYWFQQKPGQSPQLLIYRMSNLNSGVPDRFSGSGSGTEFTLTISSLEPEDFAVYYCMQHLEYPNTFGAGTKLEIK | 3.57
H1.147 / L1 (antibody, V domains shown, vs H1L1 (Kabat): VH D101S; also called 4G7 H1.147_L1) VH: EVQLVESGGGLVKPGGSLKLSCAASGYTFTSYVMHWVRQAPGKGLEWIGYINPYNDGTKYNEKFQGRVTISSDKSISTAYMELSSLRSEDTAMYYCARGTYYYGSRVFSYWGQGTLVTVSS VL: DIVMTQSPATLSLSPGERATLSCRSSKSLLNSNGNTYLYWFQQKPGQSPQLLIYRMSNLASGVPDRFSGSGSGTEFTLTISSLEPEDFAVYYCMQHLEYPFTFGAGTKLEIK | 2.65
H1.199 / L1.141 (antibody, V domains shown, vs H1L1 (Kabat): VH T57P/K58E/S100cT; VL A55N/F96N; also called 4G7 H1.199_L1.141) VH: EVQLVESGGGLVKPGGSLKLSCAASGYTFTSYVMHWVRQAPGKGLEWIGYINPYNDGPEYNEKFQGRVTISSDKSISTAYMELSSLRSEDTAMYYCARGTYYYGTRVFDYWGQGTLVTVSS VL: DIVMTQSPATLSLSPGERATLSCRSSKSLLNSNGNTYLYWFQQKPGQSPQLLIYRMSNLNSGVPDRFSGSGSGTEFTLTISSLEPEDFAVYYCMQHLEYPNTFGAGTKLEIK | 4.02
H1.196 / L1.152 (antibody, V domains shown, vs H1L1 (Kabat): VH T57P/S100cT/R100dS; VL L27cQ/S27eV/F96N; also called 4G7 H1.196_L1.152) VH: EVQLVESGGGLVKPGGSLKLSCAASGYTFTSYVMHWVRQAPGKGLEWIGYINPYNDGPKYNEKFQGRVTISSDKSISTAYMELSSLRSEDTAMYYCARGTYYYGTSVFDYWGQGTLVTVSS VL: DIVMTQSPATLSLSPGERATLSCRSSKSLQNVNGNTYLYWFQQKPGQSPQLLIYRMSNLASGVPDRFSGSGSGTEFTLTISSLEPEDFAVYYCMQHLEYPNTFGAGTKLEIK | 4.36
H1.192 / L1.146 (antibody, V domains shown, vs H1L1 (Kabat): VH T57P/S100cT; VL S27eV/A55N/F96N; also called 4G7 H1.192_L1.146) VH: EVQLVESGGGLVKPGGSLKLSCAASGYTFTSYVMHWVRQAPGKGLEWIGYINPYNDGPKYNEKFQGRVTISSDKSISTAYMELSSLRSEDTAMYYCARGTYYYGTRVFDYWGQGTLVTVSS VL: DIVMTQSPATLSLSPGERATLSCRSSKSLLNVNGNTYLYWFQQKPGQSPQLLIYRMSNLNSGVPDRFSGSGSGTEFTLTISSLEPEDFAVYYCMQHLEYPNTFGAGTKLEIK | 3.19
H1.196 / L1 (antibody, V domains shown, vs H1L1 (Kabat): VH T57P/S100cT/R100dS; also called 4G7 H1.196_L1) VH: EVQLVESGGGLVKPGGSLKLSCAASGYTFTSYVMHWVRQAPGKGLEWIGYINPYNDGPKYNEKFQGRVTISSDKSISTAYMELSSLRSEDTAMYYCARGTYYYGTSVFDYWGQGTLVTVSS VL: DIVMTQSPATLSLSPGERATLSCRSSKSLLNSNGNTYLYWFQQKPGQSPQLLIYRMSNLASGVPDRFSGSGSGTEFTLTISSLEPEDFAVYYCMQHLEYPFTFGAGTKLEIK | 3.42
H1.192 / L1.141 (antibody, V domains shown, vs H1L1 (Kabat): VH T57P/S100cT; VL A55N/F96N; also called 4G7 H1.192_L1.141) VH: EVQLVESGGGLVKPGGSLKLSCAASGYTFTSYVMHWVRQAPGKGLEWIGYINPYNDGPKYNEKFQGRVTISSDKSISTAYMELSSLRSEDTAMYYCARGTYYYGTRVFDYWGQGTLVTVSS VL: DIVMTQSPATLSLSPGERATLSCRSSKSLLNSNGNTYLYWFQQKPGQSPQLLIYRMSNLNSGVPDRFSGSGSGTEFTLTISSLEPEDFAVYYCMQHLEYPNTFGAGTKLEIK | 2.57
